Experimental findings from paper PMC7400510, “Molecular basis of the lipid-induced MucA-MucB dissociation in Pseudomonas aeruginosa” (Communications Biology, 2020) are described below.

Experiment [1] addresses T1, MucB (pET22b-MucB-6His) (P. aeruginosa, UniProt P38108 22-316).
T1 construct: source: E. coli BL21 (DE3), purified (Ni–NTA, Superdex-75)
T1 sequence: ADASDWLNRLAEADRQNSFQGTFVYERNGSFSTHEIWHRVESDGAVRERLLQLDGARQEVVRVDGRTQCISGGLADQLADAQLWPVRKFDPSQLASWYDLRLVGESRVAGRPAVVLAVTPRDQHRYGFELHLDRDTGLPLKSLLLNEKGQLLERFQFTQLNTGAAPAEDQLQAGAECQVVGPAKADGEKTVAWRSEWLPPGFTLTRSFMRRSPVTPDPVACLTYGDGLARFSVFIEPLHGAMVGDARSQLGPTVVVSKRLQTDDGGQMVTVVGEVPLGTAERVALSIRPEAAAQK
In words: ITC; MucB (20 µM) in the sample cell titrated with MucA^peri (200 µM), 19 injections; 25 mM Tris–HCl (pH 7.5), 150 mM NaCl, 25 °C. The following applies: both partners purified. For orientation: Isothermal titration calorimetry measures the heat released or taken up as one component is titrated into another.

For experiment [2], the target named is T2, MucB (pET22b-MucB-6His) (P. aeruginosa, UniProt P38108 22-316).
T2 chain: T1 sequence
Put plainly: ITC.

B1: periplasmic region of MucA (MucA^peri: residues 106–194), with His-tag (domain or fragment)
chain: YNQNDALPQMAQQGTTPQIALPQVKGPAVLAGYSEEQGAPQVITNSSSSDTRWHEQRLPIYLRQHVQQSAVSGTESALPYARAASLENR
notes: also called periplasmic domain of MucA; source: E. coli BL21 (DE3), purified (Ni–NTA, Superdex-75); not shown: His6, C-terminal, kept
Take B1: binding with MucB (pET22b-MucB-6His) [1] was put at a Kd of 1500 nM. In the experiment with MucB (pET22b-MucB-6His) [2], this molecule yielded a Ka of 633000 M⁻¹.

In general, Kd refers to a measure of binding affinity in units of concentration. High values mean a looser complex, low ones a tighter complex.
